Measured values from the supplement of paper PMC10126150.
± gives the standard deviation of the averaged measurements.

system: ATP; test: switch fluorescence ratio, 500 uM ATP over buffer (Cy3 cluster intensity, sum of 5 cycles each) (fold (ratio)); higher = stronger signal-on switching upon ATP binding; sequences stand for … in TCGTCGGCAGCGTCAGATGTGTATAAGAGACAGTTTTTTTTTTTTTTTTTTTTTTTTT…TC; conditions: aptamer strand: ATP DNA aptamer (quencher-CACCTGGGGGAGTATTGCGGAGGAAGG + anchor), 100 nM annealed; ATP concentration: 500 uM
In short: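 Between each of five buffer/ATP cycles, the flow-cell was stripped with NaOH and re-annealed. Each cycle imaged Cy3-labelled switching-strand clusters, annealed to 100 nM quencher-labelled ATP aptamer on a modified Illumina MiSeq flow-cell, first in selection buffer and then after 15 min with 500 uM ATP at 22 °C. The fluorescence ratio is summed target-cycle over summed buffer-cycle Cy3 intensity per cluster, averaged per switch-domain sequence, with clusters outside 100-1000 RFU excluded.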
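Also: ATP exposure 15 min at 22 °C before imaging.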

Sequence | switch fluorescence ratio
AATGTGGGGT | 0.995 ± 0.026
CTTGGGGCAT | 1.025 ± 0.008
TTTTTGATTA | 0.986 ± 0.062
AGTTGCTAAG | 0.986 ± 0.035
AATAGATATG | 1.01 ± 0.0018
GAATTTCGAT | 0.976 ± 0.011
TAAAGATGAT | 1.01 ± 0.012
TGATTTCCAT | 0.9996 ± 0.0064
TTTGAAGCAT | 1 ± 0.061
TGCTCATTCG | 1.01 ± 0.024
ATTTCATGG | 0.97 ± 0.057
CGGTTATGGT | 0.99 ± 0.022
TTGGGCGAGC | 0.9736 ± 0.0045
AGTAATATAT | 0.976 ± 0.028
CGGGCGGGGC | 1.04 ± 0.028
TTAGTACCCT | 1.06 ± 0.043
TGGTTTCTTT | 1.006 ± 0.0059
TGAGTGCTCT | 0.9733 ± 0.0062
GGGATTCAAC | 1.018 ± 0.0085
CATGGTAAGT | 0.994 ± 0.053
TTTATGAATG | 0.9853 ± 0.0042
CGGGGAATCA | 0.991 ± 0.038
CGGGGGAGTC | 1.02 ± 0.027
GGTGATAGGA | 0.98 ± 0.034
GCGGTCAGCT | 0.99 ± 0.087

Sequence | switch fluorescence ratio
CGCGGAGGGG | 1.01 ± 0.049
TCGTTTAGCA | 1.07 ± 0.029
TTTTCAGAAG | 0.997 ± 0.013
GGATTACTCT | 1.0308 ± 0.00015
CCTACGTGGT | 4.49 ± 0.15
GGAAGGGATT | 1.05 ± 0.08
CTCGGGGGGG | 0.998 ± 0.028
GGGAGGAAGC | 0.99 ± 0.0049
CTTTTTGTGT | 0.987 ± 0.019
TTCTAAAGGG | 0.984 ± 0.065
GAGTGTGTTC | 1.01 ± 0.024
CGACTTTTAT | 0.9818 ± 0.0046
ACGACAGATG | 0.961 ± 0.046
TTTAGGGTCG | 1.007 ± 0.0016
CGGGGGTTGT | 0.963 ± 0.036
AGGAAGGGT | 0.9978 ± 0.0079
GATAGTTTTT | 0.985 ± 0.03
CGGGGAGAGC | 1.03 ± 0.039
TTTTATGCGT | 0.993 ± 0.033
TGTGGGTATT | 1.01 ± 0.028
TACGGATACT | 1.27 ± 0.026
GAAAGTTTTG | 1.01 ± 0.059
TTGGGTCAAC | 1.05 ± 0.014
ACTTTTCGGG | 0.9921 ± 0.0056
TTCTCGAGTT | 0.992 ± 0.013

Sequence | switch fluorescence ratio
TTTGTTAGAT | 0.993 ± 0.022
GGTAACCGGG | 1.019 ± 0.0016
TGATTCCGCA | 3.07 ± 0.12
ACGGGGGCGG | 1 ± 0.033
AATCCGACGA | 1.66 ± 0.17
AGGGGGCGGT | 0.959 ± 0.033
AACTTCAGGC | 1.05 ± 0.041
CTAGGATTAA | 0.985 ± 0.013
AAATGAAAAC | 0.98 ± 0.037
GTGAGTTTTA | 0.971 ± 0.019
TTTACTGGCA | 1.05 ± 0.076
ATTTGACGGG | 1.03 ± 0.047
CGCTGAGATC | 1.016 ± 0.002
GGTTCTACTC | 1.02 ± 0.013
CGTGTGGTCG | 0.9325 ± 0.0038
ATCGTAAGGG | 0.983 ± 0.038
TAAAGGGGGA | 0.983 ± 0.039
TTCATTCGCT | 1.52 ± 0.056
AGTAAAAATG | 0.982 ± 0.027
TCGCTTTTTT | 1.03 ± 0.068
ACCGCGTATG | 1.03 ± 0.038
CTAAGATAGC | 1.03 ± 0.041
GTTGATTTTG | 0.981 ± 0.042
TTAAGTACGC | 1.29 ± 0.014
AGAGACAGCT | 0.994 ± 0.05

Sequence | switch fluorescence ratio
GGGATAAGAG | 0.973 ± 0.029
TGATACGCTA | 1.28 ± 0.23
TCATAGATCG | 1.01 ± 0.027
ATATAAGTTC | 1.06 ± 0.055
TTTACGTTTG | 0.9919 ± 0.0017
GAGGGGGTCT | 1.01 ± 0.064
AACGGGCTGG | 0.996 ± 0.04
ACAGGGGGCC | 1.08 ± 0.12
AGTCCGGGTT | 0.991 ± 0.036
GTTAGGAATT | 0.985 ± 0.032
TTTCACGCGC | 1.03 ± 0.016
TCTGCTTCCG | 1.03 ± 0.02
TTTAGTGGTT | 1.02 ± 0.044
TTAAGAGGGG | 0.975 ± 0.042
TTCGTGGGGA | 0.995 ± 0.025
TAGCGGTTGG | 1.022 ± 0.0053
TAAAGGGAAA | 1.26 ± 0.37
GGGGCTTGAC | 1.01 ± 0.022
GACACGTGTT | 1.03 ± 0.045
TAGCCGGGGT | 1.04 ± 0.054
TTTTTGAAT | 1.01 ± 0.021
CTCACCACGA | 1.09 ± 0.057
TTACAAGGGA | 1.09 ± 0.18
CGGGATAGAT | 1 ± 0.039
ATTGGCATCT | 0.9925 ± 0.0079

Sequence | switch fluorescence ratio
AGTTGAGAGG | 0.972 ± 0.0088
TCATGTATGG | 0.977 ± 0.012
TTCGTCGGAT | 0.9991 ± 0.0037
TTGGGGAATT | 1 ± 0.019
TCAAAGCAAA | 1.41 ± 0.077
TGAATGTATT | 1.03 ± 0.045
GGGCGCTTTC | 1.03 ± 0.028
TGTAGTTGGA | 0.973 ± 0.032
TATTTAGTTG | 1 ± 0.024
ACCAGTCTGG | 1.01 ± 0.017
TGACGGAAGG | 1 ± 0.032
AGGATGGGGT | 0.966 ± 0.017
AGTCGTATTT | 0.963 ± 0.019
CTAAGGTCTT | 1.07 ± 0.11
AAGGCCAGGT | 1.17 ± 0.083
GGCCAGGGGG | 1 ± 0.09
TGCAATTGGG | 1.08 ± 0.022
GTTTTTTGCC | 1 ± 0.034
CGTGACTAAA | 0.9893 ± 0.0079
TAGTGGGCTG | 0.972 ± 0.025
AGGTATCAAT | 1 ± 0.053
TTTTAGTGCC | 1.01 ± 0.04
TTTAATACGG | 1.04 ± 0.011
GGTTTTTAAA | 1 ± 0.062
AATTTCATGT | 1.01 ± 0.012

Sequence | switch fluorescence ratio
CGTAGCTTAG | 1.25 ± 0.13
CGGTAATCGG | 0.988 ± 0.01
GGGGAAGGG | 1.12 ± 0.24
AGGAAGGTTT | 0.993 ± 0.041
GTATTTGGGG | 0.985 ± 0.034
GGGGGGGCGG | 1 ± 0.024
ATGCATATGG | 1.03 ± 0.013
ATGTAACTCG | 1.03 ± 0.044
TCGTTGATGT | 1 ± 0.049
ATGTGGGGGA | 1.02 ± 0.015
GGTTGGCATA | 0.984 ± 0.016
TTTGTCATGG | 1.04 ± 0.037
ACCAATTTTG | 1.01 ± 0.024
TCTTTGGTCG | 1.02 ± 0.12
CTTTTAGGTG | 1.11 ± 0.12
GGTATTGGGG | 1.03 ± 0.034
CTGTGGATGC | 1.089 ± 0.0038
AGGGTACTGT | 1.05 ± 0.092
GGGGTGGCTA | 1.02 ± 0.019
ACGGCGCTTA | 1.19 ± 0.054
AAGTTTTATT | 0.992 ± 0.043
ATTCACTTAG | 1.09 ± 0.011
GCTCTTAAGG | 0.982 ± 0.051
TGGGGAATCT | 1.02 ± 0.016
CGGGGTAATG | 0.979 ± 0.012

Sequence | switch fluorescence ratio
GTTAGGGGAT | 1 ± 0.011
CGTGACAAGA | 0.986 ± 0.056
GCATATGATC | 1.05 ± 0.021
GACATCCCCT | 1.04 ± 0.047
TCCTAGAAC | 0.997 ± 0.026
CTCTGTGGTG | 1.02 ± 0.048
TCTGGTTTGT | 1.04 ± 0.049
CGTTTGAACT | 1.025 ± 0.0094
ATGTTTCAGG | 0.997 ± 0.018
TTGTTGAAGT | 0.9966 ± 0.0072
GATTGAGACT | 1.01 ± 0.026
GTTATGGGGC | 0.966 ± 0.043
ATGATTTGGT | 0.983 ± 0.026
CGTGGGTTCC | 0.989 ± 0.038
AATAAAGGGG | 1.19 ± 0.25
TGGTTTTATA | 0.969 ± 0.02
AAATTGGTTG | 0.976 ± 0.014
GTTAGGCCCT | 1 ± 0.014
TCTTGGGCTG | 0.9719 ± 0.0073
TTAGGGTG | 0.992 ± 0.03
ACACAATAGG | 1.04 ± 0.025
AGGATGTTGG | 0.993 ± 0.026
CGAATTAATT | 0.96152 ± 0.00065
TTCAAGCTGG | 1.039 ± 0.0098
GGGTACGTGG | 1.005 ± 0.009

Sequence | switch fluorescence ratio
ACCTCGGTCG | 0.983 ± 0.019
CGGTGTAAAA | 0.961 ± 0.011
ATCGTGTTTG | 0.952 ± 0.043
AGGGTAACGA | 0.999 ± 0.035
GTCTATAATT | 0.9879 ± 0.0048
ATTTTACGTG | 1 ± 0.016
CGGACTCATT | 1.09 ± 0.15
TAGGTCTTAA | 0.995 ± 0.013
TGGGTTCGAA | 0.98 ± 0.013
AGAGACGGCA | 1.01 ± 0.032
AAGTGGTGGT | 0.989 ± 0.011
ATACGCCGGT | 1.013 ± 0.004
AAGGACATTA | 1.042 ± 0.0014
AGGTGATAGG | 0.9825 ± 0.0059
TACAAGGGTG | 1.1 ± 0.03
TAGGGGTA | 1.01 ± 0.021
AAAAATGACG | 0.991 ± 0.028
GGATGTATAG | 0.997 ± 0.052
TTTTCCTAGA | 1.004 ± 0.0057
TGGGTGTTGC | 0.941 ± 0.083
AACAATGCTA | 1.05 ± 0.026
GTGCAGGTGC | 1.37 ± 0.026
CGGAAGCTAA | 1.46 ± 0.16
CGGATTAGAG | 0.9641 ± 0.0032
TATTTGAATG | 1.01 ± 0.028
